{"source": "patent US20250382383A1", "target": "soluble recombinant TGF-β1 (UniProt P01137)", "sequence (P01137 279-390 limits assumed)": "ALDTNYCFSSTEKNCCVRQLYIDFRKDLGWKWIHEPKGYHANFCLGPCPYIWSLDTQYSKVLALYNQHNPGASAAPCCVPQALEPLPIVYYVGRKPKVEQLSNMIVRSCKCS", "assay": "cell-based or functional assay"}
{"substance": "TGF-beta dominant negative receptor (TGFβ DNR) (from UniProt P37173 23-194)", "values": [{"measurement": "pSMAD2 (MFI/µg protein), TGFβ +; CAR-DNR T cells; Donor 1 (MFI/µg protein)", "result": 2210}, {"measurement": "pSMAD2 (MFI/µg protein), TGFβ +; Tri-2A T cells; Donor 1 (MFI/µg protein)", "result": 1970}, {"measurement": "pSMAD2 (MFI/µg protein), TGFβ +; Tri-2A T cells; Donor 2 (MFI/µg protein)", "result": 2080}, {"measurement": "pSMAD2 (MFI/µg protein), TGFβ +; Tri-2A T cells; Donor 3 (MFI/µg protein)", "result": 1730}, {"measurement": "pSMAD2 (MFI/µg protein), TGFβ +; Tri-IRES T cells; Donor 1 (MFI/µg protein)", "result": 3240}, {"measurement": "pSMAD2 (MFI/µg protein), TGFβ +; Tri-IRES T cells; Donor 2 (MFI/µg protein)", "result": 3400}, {"measurement": "pSMAD2 (MFI/µg protein), TGFβ +; Tri-IRES T cells; Donor 3 (MFI/µg protein)", "result": 2270}, {"measurement": "pSMAD2 (MFI/µg protein), TGFβ +; Tri-mSCV T cells; Donor 1 (MFI/µg protein)", "result": 2480}, {"measurement": "pSMAD2 (MFI/µg protein), TGFβ +; Tri-mSCV T cells; Donor 2 (MFI/µg protein)", "result": 1720}, {"measurement": "pSMAD2 (MFI/µg protein), TGFβ +; Tri-mSCV T cells; Donor 3 (MFI/µg protein)", "result": 1200}, {"measurement": "pSMAD2/3 (MFI CAR+), TGFb +; CAR-DNR T cells; Donor 1", "result": 86.9, "unit": "MFI"}, {"measurement": "pSMAD2/3 (MFI CAR+), TGFb +; CAR-DNR T cells; Donor 2", "result": 105, "unit": "MFI"}, {"measurement": "pSMAD2/3 (MFI CAR+), TGFb +; CAR-DNR T cells; Donor 3", "result": 106, "unit": "MFI"}, {"measurement": "pSMAD2/3 (MFI CAR+), TGFb +; Tri-2A T cells; Donor 1", "result": 106, "unit": "MFI"}, {"measurement": "pSMAD2/3 (MFI CAR+), TGFb +; Tri-2A T cells; Donor 2", "result": 208, "unit": "MFI"}, {"measurement": "pSMAD2/3 (MFI CAR+), TGFb +; Tri-2A T cells; Donor 3", "result": 189, "unit": "MFI"}, {"measurement": "pSMAD2/3 (MFI CAR+), TGFb +; Tri-IRES T cells; Donor 1", "result": 70.6, "unit": "MFI"}, {"measurement": "pSMAD2/3 (MFI CAR+), TGFb +; Tri-IRES T cells; Donor 2", "result": 89.7, "unit": "MFI"}, {"measurement": "pSMAD2/3 (MFI CAR+), TGFb +; Tri-IRES T cells; Donor 3", "result": 89.4, "unit": "MFI"}, {"measurement": "pSMAD3 (MFI/µg protein), TGFβ +; CAR-DNR T cells; Donor 1 (MFI/µg protein)", "result": 621}, {"measurement": "pSMAD3 (MFI/µg protein), TGFβ +; Tri-2A T cells; Donor 1 (MFI/µg protein)", "result": 561}, {"measurement": "pSMAD3 (MFI/µg protein), TGFβ +; Tri-2A T cells; Donor 2 (MFI/µg protein)", "result": 488}, {"measurement": "pSMAD3 (MFI/µg protein), TGFβ +; Tri-2A T cells; Donor 3 (MFI/µg protein)", "result": 405}, {"measurement": "pSMAD3 (MFI/µg protein), TGFβ +; Tri-IRES T cells; Donor 1 (MFI/µg protein)", "result": 942}, {"measurement": "pSMAD3 (MFI/µg protein), TGFβ +; Tri-IRES T cells; Donor 2 (MFI/µg protein)", "result": 788}, {"measurement": "pSMAD3 (MFI/µg protein), TGFβ +; Tri-IRES T cells; Donor 3 (MFI/µg protein)", "result": 643}, {"measurement": "pSMAD3 (MFI/µg protein), TGFβ +; Tri-mSCV T cells; Donor 1 (MFI/µg protein)", "result": 660}, {"measurement": "pSMAD3 (MFI/µg protein), TGFβ +; Tri-mSCV T cells; Donor 2 (MFI/µg protein)", "result": 460}, {"measurement": "pSMAD3 (MFI/µg protein), TGFβ +; Tri-mSCV T cells; Donor 3 (MFI/µg protein)", "result": 377}]}
